Paper PMC11743776, “Isoxazole-based molecules restore NK cell immune surveillance in hepatocarcinogenesis by targeting TM4SF5 and SLAMF7 linkage” (Signal Transduction and Targeted Therapy, 2025)

T1: TM4SF5 (Homo sapiens, UniProt O14894)
T1 construct: Strep-TM4SF5 WT (pulled down from HEK293FT) or HA-TM4SF5 (immunoprecipitated from Huh7KO)
T1 sequence (O14894 1-197): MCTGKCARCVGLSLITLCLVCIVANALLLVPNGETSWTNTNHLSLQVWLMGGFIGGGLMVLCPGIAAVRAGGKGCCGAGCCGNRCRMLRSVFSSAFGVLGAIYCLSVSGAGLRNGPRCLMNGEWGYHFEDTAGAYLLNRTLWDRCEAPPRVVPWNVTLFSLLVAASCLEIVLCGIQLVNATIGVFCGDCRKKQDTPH


target: T1, TM4SF5; experiment: […]-radioligand binding to pulled-down/immunoprecipitated TM4SF5, blocked by cold ST-5-002; EC50 by titration (about […] or […] for the differently tagged proteins); details: not given

Row | EC50 | Molecule
1 | ~850 nM | Cc1ccc(C(=O)Nc2ccc(-c3cc(-c4ccc(O)cc4)no3)cc2)cc1 [ST-5-002, N-(4-(3-(4-hydroxyphenyl)isoxazol-5-yl)phenyl)-4-methylbenzamide]

target: not listed separately; experiment: confocal immunofluorescence colocalisation; details: glycan lost; control: FLAG-SLAMF7 WT

Row | Molecule | localisation_or_trafficking
2 | SLAMF7: NQ#6 (protein) parent chain: MAGSPTCLTLIYILWQLTGSAASGPVKELVGSVGGAVTFPLKSKVKQVDSIVWTFNTTPLVTIQPEGGTIIVTQNRNRERVDFPDGGYSLKLSKLKKNDSGIYYVGIYSSSLQQPSTQEYVLHVYEHLSKPKVTMGLQSNKNGTCVTNLTCCMEHGEEDVIYTWKALGQAANESHNGSILPISWRWGESDMTFICVARNPVSRNFSSPILARKLCEGAADDPDSSMVLLCLLLVPLLLSLFVLGLFLWFLKRERQEEYIEEKKRVDICRETPNICPHSGENTEYDTIPHTNRTILKEDPANTVYSTVEIPKKMENPHSLLTMPDTPRLFAYENVI | abolishes
3 | SLAMF7: NQ#123 (protein) parent chain: MAGSPTCLTLIYILWQLTGSAASGPVKELVGSVGGAVTFPLKSKVKQVDSIVWTFNTTPLVTIQPEGGTIIVTQNRNRERVDFPDGGYSLKLSKLKKNDSGIYYVGIYSSSLQQPSTQEYVLHVYEHLSKPKVTMGLQSNKNGTCVTNLTCCMEHGEEDVIYTWKALGQAANESHNGSILPISWRWGESDMTFICVARNPVSRNFSSPILARKLCEGAADDPDSSMVLLCLLLVPLLLSLFVLGLFLWFLKRERQEEYIEEKKRVDICRETPNICPHSGENTEYDTIPHTNRTILKEDPANTVYSTVEIPKKMENPHSLLTMPDTPRLFAYENVI | no change
4 | SLAMF7: NQ#456 (protein) parent chain: MAGSPTCLTLIYILWQLTGSAASGPVKELVGSVGGAVTFPLKSKVKQVDSIVWTFNTTPLVTIQPEGGTIIVTQNRNRERVDFPDGGYSLKLSKLKKNDSGIYYVGIYSSSLQQPSTQEYVLHVYEHLSKPKVTMGLQSNKNGTCVTNLTCCMEHGEEDVIYTWKALGQAANESHNGSILPISWRWGESDMTFICVARNPVSRNFSSPILARKLCEGAADDPDSSMVLLCLLLVPLLLSLFVLGLFLWFLKRERQEEYIEEKKRVDICRETPNICPHSGENTEYDTIPHTNRTILKEDPANTVYSTVEIPKKMENPHSLLTMPDTPRLFAYENVI | abolishes

target: not listed separately; experiment: immunoblot of SLAMF7 level with TM4SF5 expression; details: glycan lost; control: WT SLAMF7, TM4SF5 co-expressed

Row | Molecule | expression_or_secretion
5 | SLAMF7: NQ#123 (protein) parent chain: MAGSPTCLTLIYILWQLTGSAASGPVKELVGSVGGAVTFPLKSKVKQVDSIVWTFNTTPLVTIQPEGGTIIVTQNRNRERVDFPDGGYSLKLSKLKKNDSGIYYVGIYSSSLQQPSTQEYVLHVYEHLSKPKVTMGLQSNKNGTCVTNLTCCMEHGEEDVIYTWKALGQAANESHNGSILPISWRWGESDMTFICVARNPVSRNFSSPILARKLCEGAADDPDSSMVLLCLLLVPLLLSLFVLGLFLWFLKRERQEEYIEEKKRVDICRETPNICPHSGENTEYDTIPHTNRTILKEDPANTVYSTVEIPKKMENPHSLLTMPDTPRLFAYENVI | no change
6 | SLAMF7: NQ#1456 (protein) parent chain: MAGSPTCLTLIYILWQLTGSAASGPVKELVGSVGGAVTFPLKSKVKQVDSIVWTFNTTPLVTIQPEGGTIIVTQNRNRERVDFPDGGYSLKLSKLKKNDSGIYYVGIYSSSLQQPSTQEYVLHVYEHLSKPKVTMGLQSNKNGTCVTNLTCCMEHGEEDVIYTWKALGQAANESHNGSILPISWRWGESDMTFICVARNPVSRNFSSPILARKLCEGAADDPDSSMVLLCLLLVPLLLSLFVLGLFLWFLKRERQEEYIEEKKRVDICRETPNICPHSGENTEYDTIPHTNRTILKEDPANTVYSTVEIPKKMENPHSLLTMPDTPRLFAYENVI | increases
7 | SLAMF7: NQ#3 (protein) parent chain: MAGSPTCLTLIYILWQLTGSAASGPVKELVGSVGGAVTFPLKSKVKQVDSIVWTFNTTPLVTIQPEGGTIIVTQNRNRERVDFPDGGYSLKLSKLKKNDSGIYYVGIYSSSLQQPSTQEYVLHVYEHLSKPKVTMGLQSNKNGTCVTNLTCCMEHGEEDVIYTWKALGQAANESHNGSILPISWRWGESDMTFICVARNPVSRNFSSPILARKLCEGAADDPDSSMVLLCLLLVPLLLSLFVLGLFLWFLKRERQEEYIEEKKRVDICRETPNICPHSGENTEYDTIPHTNRTILKEDPANTVYSTVEIPKKMENPHSLLTMPDTPRLFAYENVI | no change
8 | SLAMF7: NQ#456 (protein) parent chain: MAGSPTCLTLIYILWQLTGSAASGPVKELVGSVGGAVTFPLKSKVKQVDSIVWTFNTTPLVTIQPEGGTIIVTQNRNRERVDFPDGGYSLKLSKLKKNDSGIYYVGIYSSSLQQPSTQEYVLHVYEHLSKPKVTMGLQSNKNGTCVTNLTCCMEHGEEDVIYTWKALGQAANESHNGSILPISWRWGESDMTFICVARNPVSRNFSSPILARKLCEGAADDPDSSMVLLCLLLVPLLLSLFVLGLFLWFLKRERQEEYIEEKKRVDICRETPNICPHSGENTEYDTIPHTNRTILKEDPANTVYSTVEIPKKMENPHSLLTMPDTPRLFAYENVI | increases
9 | SLAMF7: NQ#1 (protein) parent chain: MAGSPTCLTLIYILWQLTGSAASGPVKELVGSVGGAVTFPLKSKVKQVDSIVWTFNTTPLVTIQPEGGTIIVTQNRNRERVDFPDGGYSLKLSKLKKNDSGIYYVGIYSSSLQQPSTQEYVLHVYEHLSKPKVTMGLQSNKNGTCVTNLTCCMEHGEEDVIYTWKALGQAANESHNGSILPISWRWGESDMTFICVARNPVSRNFSSPILARKLCEGAADDPDSSMVLLCLLLVPLLLSLFVLGLFLWFLKRERQEEYIEEKKRVDICRETPNICPHSGENTEYDTIPHTNRTILKEDPANTVYSTVEIPKKMENPHSLLTMPDTPRLFAYENVI | no change
10 | SLAMF7: NQ#2 (protein) parent chain: MAGSPTCLTLIYILWQLTGSAASGPVKELVGSVGGAVTFPLKSKVKQVDSIVWTFNTTPLVTIQPEGGTIIVTQNRNRERVDFPDGGYSLKLSKLKKNDSGIYYVGIYSSSLQQPSTQEYVLHVYEHLSKPKVTMGLQSNKNGTCVTNLTCCMEHGEEDVIYTWKALGQAANESHNGSILPISWRWGESDMTFICVARNPVSRNFSSPILARKLCEGAADDPDSSMVLLCLLLVPLLLSLFVLGLFLWFLKRERQEEYIEEKKRVDICRETPNICPHSGENTEYDTIPHTNRTILKEDPANTVYSTVEIPKKMENPHSLLTMPDTPRLFAYENVI | no change
11 | SLAMF7: NQ#23456 (protein) parent chain: MAGSPTCLTLIYILWQLTGSAASGPVKELVGSVGGAVTFPLKSKVKQVDSIVWTFNTTPLVTIQPEGGTIIVTQNRNRERVDFPDGGYSLKLSKLKKNDSGIYYVGIYSSSLQQPSTQEYVLHVYEHLSKPKVTMGLQSNKNGTCVTNLTCCMEHGEEDVIYTWKALGQAANESHNGSILPISWRWGESDMTFICVARNPVSRNFSSPILARKLCEGAADDPDSSMVLLCLLLVPLLLSLFVLGLFLWFLKRERQEEYIEEKKRVDICRETPNICPHSGENTEYDTIPHTNRTILKEDPANTVYSTVEIPKKMENPHSLLTMPDTPRLFAYENVI | increases
12 | SLAMF7: NQ#2456 (protein) parent chain: MAGSPTCLTLIYILWQLTGSAASGPVKELVGSVGGAVTFPLKSKVKQVDSIVWTFNTTPLVTIQPEGGTIIVTQNRNRERVDFPDGGYSLKLSKLKKNDSGIYYVGIYSSSLQQPSTQEYVLHVYEHLSKPKVTMGLQSNKNGTCVTNLTCCMEHGEEDVIYTWKALGQAANESHNGSILPISWRWGESDMTFICVARNPVSRNFSSPILARKLCEGAADDPDSSMVLLCLLLVPLLLSLFVLGLFLWFLKRERQEEYIEEKKRVDICRETPNICPHSGENTEYDTIPHTNRTILKEDPANTVYSTVEIPKKMENPHSLLTMPDTPRLFAYENVI | increases

target: not listed separately; experiment: immunoblot of SLAMF7 in co-transfected SNU761 cells; details: glycan lost; control: Strep-TM4SF5 WT

Row | Molecule | other: downregulation of SLAMF7 level
13 | TM4SF5: Gly− (protein) parent chain: MCTGKCARCVGLSLITLCLVCIVANALLLVPNGETSWTNTNHLSLQVWLMGGFIGGGLMVLCPGIAAVRAGGKGCCGAGCCGNRCRMLRSVFSSAFGVLGAIYCLSVSGAGLRNGPRCLMNGEWGYHFEDTAGAYLLNRTLWDRCEAPPRVVPWNVTLFSLLVAASCLEIVLCGIQLVNATIGVFCGDCRKKQDTPH | abolishes
